We go through one molecule from patent US20190322720A1 (PRECISION BIOLOGICS, published 2019).

Assay [1] deals with T1, MUC5AC truncation construct 1-136 (human, UniProt P98088 3212-4055).
T1 construct: also called 136 residue construct
T1 sequence: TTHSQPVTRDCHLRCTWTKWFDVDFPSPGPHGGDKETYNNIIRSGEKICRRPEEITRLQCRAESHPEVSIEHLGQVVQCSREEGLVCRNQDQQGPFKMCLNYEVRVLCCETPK
Put plainly: immunofluorescence, transfected 293T cells. Here is the method: (§1) Cells were transiently transfected with 2 μg of MUC5AC constructs of Table 8 with LIPOFECTAMINE®. Cells were grown for about 72 hours, fixed with about 4% PFA in PBS, washed with PBS, permeabilized with about 0.2% […] in PBS and washed with PBS. Cells were then blocked with about 1% BSA in PBS, and about 2 μg/ml NPC-1 antibody was added to sample wells and about 2 μg/ml of an Isotype control was added for 1 hour at room temp. Cells were washed with PBS and second anti human-FITC antibody (1:500) was added to all wells and to the second antibody control wells. Cells were washed and mounted on slides with DAPI hard mount. Cover slides were allowed to sit over night at about 4° C. Slides were visualized with a Nikon Eclipse Ti microscope with an Andor camera. At least 3 random fields were counted per transfection.
(§2) This strategy was used to identify an about 15 amino acid-region that contains a NPC-1 epitope: […] (SEQ ID NO: 37). […] This is a repetitive sequence that also has some changes in it which are also probable scaffold for the binding sites for the NPC-1C antibody. This repetitive sequence and variations can be found in the longer deletions of MUC5AC and MUC5AC itself.

The target of assay [2] is T2, MUC5AC truncation construct 1-85 (human, UniProt P98088 1734-1794).
T2 construct: also called 85 residue construct
T2 chain: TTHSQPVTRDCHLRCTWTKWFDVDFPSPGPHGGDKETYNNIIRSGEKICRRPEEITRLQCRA
Description: immunofluorescence, transfected 293T cells. How it is done: as §1, §2

B1: NPC-1C (antibody, V domains shown)
VH: QVQLKESGPDLVAPSQSLSITCTVSGFSLSKFGVNWVRQPPGKGLEWLGVIWGDGSTSYNSGLISRLSISKENSKSQVFLKLNSLQADDTATYYCVKPGGDYWGHGTSVTVSS
VL: QVVLTQSPVIMSASPGEKVTMTCSASSSISYMYWYQQKPGTSPKRWIYDTSKLASGVPARFSGSGSGTSYSLTISNMEAGDAATYYCHQRDSYPWTFGGGTNLEIK
notes: Chimeric antibody with human IgG1 constant regions, made in CHO cells; used plain, biotin- or FITC-labelled, or coupled to beads; also called NEO-101; ensituximab
With B1, the binding result in assay [1] and in assay [2] was “no binding (tested: about 2 µg/ml)” in each case.
